From patent US20230322857A1, “RECOMBINANTLY ENGINEERED POLYPEPTIDES CAPABLE OF RECYCLING NONCANONICAL COFACTORS” (The Regents of the University of California, priority 2022, published 2023)
“Also recorded” adds a separate entry of the source.

Experiments:
[1] = Steady state kinetics of glutathione reductase (Gor) variants with NMNH; type: biochemical; conditions: for Km: enzyme could not be saturated, 96 mM Tris-Cl pH 7.5, 2.5 mM GSSG
Method: (§1) Expression and Purification of Gor Wild-type and Variants. E. coli Gor (EC 1.6.4.2) is a homo-dimeric flavoenzyme containing 450 amino acid residues with 1 FAD per subunit. To prevent interference from endogenous protein, Gor wild-type and variants were expressed using E. coli Δgor::kan strain containing pQElac based plasmids encoding for the Gor wild-type or variants. 1% (v/v) cells from an overnight culture were cultured in 2×YT media with 200 μg/mL ampicillin and 50 μg/mL kanamycin in shake flasks at 37° C. in a rotary shaker to an OD600 of 0.4-0.6. The cultures were then induced with 0.5 mM IPTG and incubated at 30° C. with shaking for 24 h. The cells were harvested with centrifugation and lysed by bead beating with Zymo His Binding Buffer (Zymo Research, CA, USA). Protein purification was performed with Zymo His-Spin Protein miniprep purification kit according to the manufacturer's instructions. The concentrations of purified protein were quantified by Coomassie dye—based assays (Bradford) using BSA (Bovine Serum Albumin) as standards.
(§2) Specific Activity and Steady State Kinetic Analyses for Gor Wild-type and Variants. The specific activity and kinetic parameters of Gor with the different cofactors, shown in FIG. 1, were measured using the following methods. For measuring the specific activity with NMNH, the 100 μL reaction mixture contained 96 mM potassium phosphate buffer pH 7.5, 2.5 mM GSSG and 0.8 mM NMNH. NMNH was generated using methods described in Black et al. (Nat. Chem. Biol. 16:87-94 (2020). Briefly, 4 mM NMN^+ was incubated in a solution containing 50 mM Tris-Cl at pH 8.5, 0.2 mM EDTA, 50 mM Na2HPO4, 5 mM D-glyceraldehyde-3-phosphate, and 28 μM of purified E. coli glyceraldehyde-3-phosphate dehydrogenase. The reaction was incubated at 30° C. for 8 h. The protein was removed by an Amicon Ultra 3 K filter, and the flow-through was dried under vacuum. Assays investigating the steady-state kinetic parameters were completed with 100 μL reaction mixtures containing 96 mM Tris-Cl buffer pH 7.5, 2.5 mM GSSG and varied cofactor concentrations from 0.01 mM to 1.6 mM. The assay was started by addition of 10 μL of purified protein at appropriate concentration at 25° C. The kinetic parameters were measured by monitoring the NAD(P)H consumption at 340 nm in 96-well plate. Data was fit to the Michaelis-Menten equation to generate estimates of apparent catalytic efficiency (kcat/Km). The results are the average of three independent experiments.

[2] = Steady state kinetics of glutathione reductase (Gor) variants with NADH; type: biochemical; conditions: for Km: enzyme could not be saturated, 96 mM Tris-Cl pH 7.5, 2.5 mM GSSG
Method: as §1, §2

[3] = Steady state kinetics of glutathione reductase (Gor) variants with NADPH; type: biochemical
Method: as §1
as §2, with “Assays investigating the steady-state kinetic parameters were completed with 100 μL reaction mixtures containing 96 mM Tris-Cl buffer pH 7.5, 2.5 mM GSSG and varied cofactor concentrations from 0.01 mM to 1.6 mM.” left out

[4] = Specific activity of Gor variants with NMNH; type: biochemical
Method: as §1
Specific Activity and Steady State Kinetic Analyses for Gor Wild-type and Variants. The specific activity and kinetic parameters of Gor with the different cofactors, shown in FIG. 1, were measured using the following methods. For measuring the specific activity with NMNH, the 100 μL reaction mixture contained 96 mM potassium phosphate buffer pH 7.5, 2.5 mM GSSG and 0.8 mM NMNH. […] The kinetic parameters were measured by monitoring the NAD(P)H consumption at 340 nm in 96-well plate. […]

[5] = previously identified variant; cited from earlier work
[6] = test system: E. coli SHuffle strain; assay: GDH-Gor coupled growth rescue in SHuffle strain; type: cell-based, Escherichia coli; conditions: 0.5 mM diamide, varying NMN^+ concentrations
Method: Culture conditions for GDH-Gor coupled growth rescue in SHuffle strain. The electro-competent cells of SHuffle harboring pLZ311 or pLZ312 were made as follows: The SHuffle cells were cultured in 200 mL SOB media with spectinomycin at 30° C. with shaking until OD600 reached 0.4-0.6. The culture was chilled on ice for 15 min and the cells were pelleted at 4° C., 4,000×g. Collected cells were washed with 10% glycerol in water (sterile, ice cold) and resuspended with 5 mL of 10% glycerol in water (sterile, ice cold), and stored as 50 μL aliquots at −80° C.
Glucose facilitator (encoded by glf) was used for uptake of unphosphorylated glucose into the cells. The co-transformation of Bs gdh and Zm glf was performed as follows: Thaw SHuffle/pLZ311 or SHuffle/pLZ312 electro-competent cells on ice, add 1 μL Bs gdh (pEK101 or pLZ210) and 1 μL Zm glf(pSM109) plasmid DNA to 50 μL competent cells, mix, and electroporate. Cells were recovered with 1 mL SOC at 37° C. with shaking for 1 h. The cells were added to 10 mL 2×YT with 10 g/L glucose, 0.5% arabinose, kanamycin, chloramphenicol, and ampicillin. After incubation at 37° C. with shaking for 10 h, 1 mL cells were washed 3 times and re-suspended in M9 buffer (1×BD Difco M9 Salts). Targeted dilutions after cells reached density of OD600 0.6 were prepared in M9 buffer and 5 μL aliquots were dispensed in series on an agar plate of M9 selection media containing 0.5 mM diamide, 1 g/L yeast extract, 10 g/L glucose, 0.5% arabinose, 0.5 mM IPTG, ampicillin, kanamycin, chloramphenicol and serial NMN concentrations of 0, 2, 4 and 6 mM. Selection plates were incubated at 37° C., and photos were taken to document growth progress.

[7] = 96 mM Tris-Cl buffer pH 7.5, 2.5 mM GSSG, varied cofactor concentrations, n = 3

B1: Gor I178T (protein, UniProt P06715 1-450, looked up, variant I178T)
Glutathione reductase: MTKHYDYIAIGGGSGGIASINRAAMYGQKCALIEAKELGGTCVNVGCVPKKVMWHAAQIREAIHMYGPDYGFDTTINKFNWETLIASRTAYIDRIHTSYENVLGKNNVDVIKGFARFVDAKTLEVNGETITADHILIATGGRPSHPDIPGVEYGIDSDGFFALPALPERVAVVGAGYTAVELAGVINGLGAKTHLFVRKHAPLRSFDPMISETLVEVMNAEGPQLHTNAIPKAVVKNTDGSLTLELEDGRSETVDCLIWAIGREPANDNINLEAAGVKTNEKGYIVVDKYQNTNIEGIYAVGDNTGAVELTPVAVAAGRRLSERLFNNKPDEHLDYSNIPTVVFSHPPIGTVGLTEPQAREQYGDDQVKVYKSSFTAMYTAVTTHRQPCRMKLVCVGSEEKIVGIHGIGFGMDEMLQGFAVALKMGATKKDFDNTVAIHPTAAEEFVTMR
[1]
  Km: > 1500 µM
[2]
  Km: > 1500 µM
[3]; [7]
  Km: 40 ± 10 µM
  NADPH kcat: 31 ± 1 s⁻¹
[4]; 0.8 mM NMNH, 2.5 mM GSSG, vs wild type Ec Gor
  enhanced NMNH-dependent activity compared to the wild type: 4 fold

B2: G174H: Ec Gor single-mutation variant predicted to make salt bridge with the NMNH phosphate group (protein, UniProt P06715 1-450, looked up, variant G174H)
Glutathione reductase: MTKHYDYIAIGGGSGGIASINRAAMYGQKCALIEAKELGGTCVNVGCVPKKVMWHAAQIREAIHMYGPDYGFDTTINKFNWETLIASRTAYIDRIHTSYENVLGKNNVDVIKGFARFVDAKTLEVNGETITADHILIATGGRPSHPDIPGVEYGIDSDGFFALPALPERVAVVHAGYIAVELAGVINGLGAKTHLFVRKHAPLRSFDPMISETLVEVMNAEGPQLHTNAIPKAVVKNTDGSLTLELEDGRSETVDCLIWAIGREPANDNINLEAAGVKTNEKGYIVVDKYQNTNIEGIYAVGDNTGAVELTPVAVAAGRRLSERLFNNKPDEHLDYSNIPTVVFSHPPIGTVGLTEPQAREQYGDDQVKVYKSSFTAMYTAVTTHRQPCRMKLVCVGSEEKIVGIHGIGFGMDEMLQGFAVALKMGATKKDFDNTVAIHPTAAEEFVTMR
[4]; vs wild type Ec Gor
  NMNH-dependent activity (in words) compared to the wild type: enhanced NMNH-dependent activity

B3: R198M-R204L: previously identified Ec Gor variant with R198M-R204L double mutations (protein, UniProt P06715 1-450, looked up, variant R198M R204L)
Glutathione reductase: MTKHYDYIAIGGGSGGIASINRAAMYGQKCALIEAKELGGTCVNVGCVPKKVMWHAAQIREAIHMYGPDYGFDTTINKFNWETLIASRTAYIDRIHTSYENVLGKNNVDVIKGFARFVDAKTLEVNGETITADHILIATGGRPSHPDIPGVEYGIDSDGFFALPALPERVAVVGAGYIAVELAGVINGLGAKTHLFVMKHAPLLSFDPMISETLVEVMNAEGPQLHTNAIPKAVVKNTDGSLTLELEDGRSETVDCLIWAIGREPANDNINLEAAGVKTNEKGYIVVDKYQNTNIEGIYAVGDNTGAVELTPVAVAAGRRLSERLFNNKPDEHLDYSNIPTVVFSHPPIGTVGLTEPQAREQYGDDQVKVYKSSFTAMYTAVTTHRQPCRMKLVCVGSEEKIVGIHGIGFGMDEMLQGFAVALKMGATKKDFDNTVAIHPTAAEEFVTMR
[5]
  NADPH-dependent activity: almost completely abolished

B4: Gor Ortho: recombinantly engineered E. coli glutathione reductase with I178T, R198M, R204L (SEQ ID NO:8), NMNH-specific (protein)
chain: MTKHYDYIAIGGGSGGIASINRAAMYGQKCALIEAKELGGTCVNVGCVPKKVMWHAAQIREAIHMYGPDYGFDTTINKFNWETLIASRTAYIDRIHTSYENVLGKNNVDVIKGFARFVDAKTLEVNGETITADHILIATGGRPSHPDIPGVEYGIDSDGFFALPALPERVAVVGAGYTAVELAGVINGLGAKTHLFVMKHAPLLSFDPMISETLVEVMNAEGPQLHTNAIPKAVVKNTDGSLTLELEDGRSETVDCLIWAIGREPANDNINLEAAGVKTNEKGYIVVDKYQNTNIEGIYAVGDNTGAVELTPVAVAAGRRLSERLFNNKPDEHLDYSNIPTVVFSHPPIGTVGLTEPQAREQYGDDQVKVYKSSFTAMYTAVTTHRQPCRMKLVCVGSEEKIVGIHGIGFGMDEMLQGFAVALKMGATKKDFDNTVAIHPTAAEEFVTMR
[1]; based on catalytic efficiency measured in vitro
  cofactor specificity switch from native cofactor NADPH to NMNH: 60,000 fold
[1]
  Km: > 1500 µM
[1]; vs Ec Gor wild type
  catalytic efficiency (kcat/Km) for NMNH, fold higher than the wild type: ~4 fold
[2]
  Km: > 1500 µM
[2]; vs I178T
  decrease of catalytic efficiency for NADH by the additional R198M-R204L mutations: ~2 fold
[6]
  growth of SHuffle strain harboring the Gor variant: supporting growth only with NMN^+ cycling; also recorded: only grows with NMNH regeneration
[3]; concentrations up to 4 mM NAD(P)H
  saturation of activity with natural cofactors: could not be saturated
[3]; enzyme could not be saturated, 96 mM Tris-Cl pH 7.5, 2.5 mM GSSG
  Km: > 1500 µM
[3]; vs Ec Gor wild type
  reduction of catalytic efficiency for NADPH compared to Ec Gor wild type: ~15,000 fold
[3]; vs I178T single mutant
  reduction of catalytic efficiency for NADPH compared to I178T single mutant: ~9,000 fold
[4]; vs Ec Gor I178T
  change in NMNH-dependent activity on adding R198M-R204L to Ec Gor I178T: only a modest decrease

B5: Gor: wild type glutathione reductase from Escherichia coli (SEQ ID NO:7) (protein, listed as Escherichia coli)
chain: MTKHYDYIAIGGGSGGIASINRAAMYGQKCALIEAKELGGTCVNVGCVPKKVMWHAAQIREAIHMYGPDYGFDTTINKFNWETLIASRTAYIDRIHTSYENVLGKNNVDVIKGFARFVDAKTLEVNGETITADHILIATGGRPSHPDIPGVEYGIDSDGFFALPALPERVAVVGAGYIAVELAGVINGLGAKTHLFVRKHAPLRSFDPMISETLVEVMNAEGPQLHTNAIPKAVVKNTDGSLTLELEDGRSETVDCLIWAIGREPANDNINLEAAGVKTNEKGYIVVDKYQNTNIEGIYAVGDNTGAVELTPVAVAAGRRLSERLFNNKPDEHLDYSNIPTVVFSHPPIGTVGLTEPQAREQYGDDQVKVYKSSFTAMYTAVTTHRQPCRMKLVCVGSEEKIVGIHGIGFGMDEMLQGFAVALKMGATKKDFDNTVAIHPTAAEEFVTMR
[1]
  Km: > 1500 µM
[2]
  Km: > 1500 µM
[6]; listed as wild type Ec Gor
  growth of SHuffle strain harboring the Gor variant: robust growth independent of NMN^+ supplementation
[6]; listed as wild type Gor
  growth of SHuffle strain harboring the Gor variant: no growth defects
[3]; [7]
  Km: 60 ± 10 µM
  NADPH kcat: 84 ± 7 s⁻¹
